From article PMC1920236 (Nucleic Acids Research, 2007)
Changes are numbered by the printed parent chain. Numbers in names are those of the source. Like-named read-outs stand apart in the source and are kept apart here.

T1: IRF-3 WT (UniProt Q14653 1-427)
T1 sequence: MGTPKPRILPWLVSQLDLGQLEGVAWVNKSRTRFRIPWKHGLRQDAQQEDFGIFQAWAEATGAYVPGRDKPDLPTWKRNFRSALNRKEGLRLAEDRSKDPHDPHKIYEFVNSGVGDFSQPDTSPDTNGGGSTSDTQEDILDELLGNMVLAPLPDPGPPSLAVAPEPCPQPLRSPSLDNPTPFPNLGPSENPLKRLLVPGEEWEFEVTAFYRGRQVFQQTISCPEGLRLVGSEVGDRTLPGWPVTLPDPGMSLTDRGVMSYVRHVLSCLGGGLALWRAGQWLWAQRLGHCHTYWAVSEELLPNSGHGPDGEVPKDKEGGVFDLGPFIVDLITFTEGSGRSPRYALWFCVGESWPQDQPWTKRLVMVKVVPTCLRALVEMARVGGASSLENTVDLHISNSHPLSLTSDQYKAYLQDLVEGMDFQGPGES

T2: IRF-3 2D (UniProt Q14653 1-427, S396D;S398D)
T2 sequence: T1 sequence with S396D, S398D

T3: IRF-3 5D (UniProt Q14653 1-427, S396D;S398D;S402D;T404D;S405D)
T3 sequence: T1 sequence with S396D, S398D, S402D, T404D, S405D

B1: IRF-3 5D phosphomimetic mutant (S396D, S398D, S402D, T404D and S405D) (natural protein)
chain: T1 sequence with S396D, S398D, S402D, T404D, S405D
B2: PRDIII-PRDI 26-bp (dsDNA)
DNA 1: GCGAACTGAAAGGGAGAAGTGAAAGT
DNA 2: ACTTTCACTTCTCCCTTTCAGTTCGC
B3: PRDI 13-bp (dsDNA)
DNA 1: GAGAAGTGAAAGT
DNA 2: ACTTTCACTTCTC

Assays:
native gel or EMSA = molecular target: the molecule itself; test: native gel or EMSA
IRF-3 WT = molecular target: T1, IRF-3 WT; test: fluorescence anisotropy
IRF-3 2D = molecular target: T2, IRF-3 2D; test: fluorescence anisotropy
IRF-3 5D [1] = molecular target: T3, IRF-3 5D; test: fluorescence anisotropy
IRF-3 5D [2] = molecular target: T3, IRF-3 5D; test: fluorescence anisotropy; remark: listed apart in the source

Row | Binder | stoichiometry N (native gel or EMSA) | Kd (IRF-3 WT) | Kd (IRF-3 2D) | Kd (IRF-3 5D [1]) | Kd (IRF-3 5D [2])
1 | B1 | 2 | – | – | – | –
2 | B2 | – | 1230 ± 15 nM | 1300 ± 15 nM | 5.8 ± 0.8 nM | –
3 | B3 | – | 800 ± 17 nM | 900 ± 15 nM | – | 1200 ± 20 nM
